Measurements as given in IntAct's records for PubMed 16299177.

B1: ABSCISIC ACID-… 5-like protein 7 (Arabidopsis thaliana (Mouse-ear cress)), Q9M7Q2 (parent)
chain: MGTHINFNNLGGGGHPGGEGSSNQMKPTGSVMPLARQSSVYSLTFDELQNTLGGPGKDFGSMNMDELLKSIWTAEEAQAMAMTSAPAATAVAQPGAGIPPPGGNLQRQGSLTLPRTISQKTVDEVWKCLITKDGNMEGSSGGGGESNVPPGRQQTLGEMTLEEFLFRAGVVREDNCVQQMGQVNGNNNNGFYGNSTAAGGLGFGFGQPNQNSITFNGTNDSMILNQPPGLGLKMGGTMQQQQQQQQLLQQQQQQMQQLNQPHPQQRLPQTIFPKQANVAFSAPVNITNKGFAGAANNSINNNNGLASYGGTGVTVAATSPGTSSAENNSLSPVPYVLNRGRRSNTGLEKVIERRQRRMIKNRESAARSRARKQAYTLELEAEIEKLKKTNQELQKKQAEMVEMQKNELKETSKRPWGSKRQCLRRTLTGPW
partner: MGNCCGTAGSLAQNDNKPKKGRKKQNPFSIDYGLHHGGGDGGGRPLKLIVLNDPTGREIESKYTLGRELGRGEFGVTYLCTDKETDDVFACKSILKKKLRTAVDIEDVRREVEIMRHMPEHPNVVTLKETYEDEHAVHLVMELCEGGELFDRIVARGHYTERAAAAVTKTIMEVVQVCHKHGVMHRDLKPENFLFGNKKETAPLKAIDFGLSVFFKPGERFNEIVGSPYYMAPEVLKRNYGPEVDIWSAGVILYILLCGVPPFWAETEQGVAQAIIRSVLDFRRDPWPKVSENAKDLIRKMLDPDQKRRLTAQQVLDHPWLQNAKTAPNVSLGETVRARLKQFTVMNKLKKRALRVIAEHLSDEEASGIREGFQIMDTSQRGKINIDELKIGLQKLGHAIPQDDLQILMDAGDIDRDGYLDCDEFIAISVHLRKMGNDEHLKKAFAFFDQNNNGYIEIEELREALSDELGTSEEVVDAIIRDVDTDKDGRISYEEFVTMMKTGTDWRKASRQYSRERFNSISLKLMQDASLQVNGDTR

Variants of: B1
Conditions: with cdpkw_arath CPK32, Q6NLQ6

Row | effect of a mutation on the interaction | Variant
1 | disrupting interaction | MGTHINFNNLGGGGHPGGEGSSNQMKPTGSVMPLARQSSVYSLTFDELQNTLGGPGKDFGSMNMDELLKSIWTAEEAQAMAMTSAPAATAVAQPGAGIPPPGGNLQRQGALTLPRTISQKTVDEVWKCLITKDGNMEGSSGGGGESNVPPGRQQTLGEMTLEEFLFRAGVVREDNCVQQMGQVNGNNNNGFYGNSTAAGGLGFGFGQPNQNSITFNGTNDSMILNQPPGLGLKMGGTMQQQQQQQQLLQQQQQQMQQLNQPHPQQRLPQTIFPKQANVAFSAPVNITNKGFAGAANNSINNNNGLASYGGTGVTVAATSPGTSSAENNSLSPVPYVLNRGRRSNTGLEKVIERRQRRMIKNRESAARSRARKQAYTLELEAEIEKLKKTNQELQKKQAEMVEMQKNELKETSKRPWGSKRQCLRRTLTGPW [S110A]

Variants of: B1
Conditions: with cdpkw_arath CPK32, Q6NLQ6
Remark: another data set of the same source

Row | effect of a mutation on the interaction | Variant
2 | decreasing interaction | MGTHINFNNLGGGGHPGGEGSSNQMKPTGSVMPLARQSSVYSLTFDELQNTLGGPGKDFGSMNMDELLKSIWTAEEAQAMAMTSAPAATAVAQPGAGIPPPGGNLQRQGALTLPRTISQKTVDEVWKCLITKDGNMEGSSGGGGESNVPPGRQQTLGEMTLEEFLFRAGVVREDNCVQQMGQVNGNNNNGFYGNSTAAGGLGFGFGQPNQNSITFNGTNDSMILNQPPGLGLKMGGTMQQQQQQQQLLQQQQQQMQQLNQPHPQQRLPQTIFPKQANVAFSAPVNITNKGFAGAANNSINNNNGLASYGGTGVTVAATSPGTSSAENNSLSPVPYVLNRGRRSNTGLEKVIERRQRRMIKNRESAARSRARKQAYTLELEAEIEKLKKTNQELQKKQAEMVEMQKNELKETSKRPWGSKRQCLRRTLTGPW [S110A]
